Assay results taken from PMC2716121 (Journal of molecular biology, 2009).

Key:
Experiment in all cases: AUC
[1] = target: PhoB^F20D, phosphorylated (Escherichia coli) (UniProt P0AFJ5)
[2] = target: Wild-type PhoB, phosphorylated (Escherichia coli) (UniProt P0AFJ5)
[3] = target: Wild-type PhoB, unphosphorylated (Escherichia coli) (UniProt P0AFJ5)
[4] = target: the molecule itself

PhoB^F20D, phosphorylated (from UniProt P0AFJ5 1-229) (natural protein)
Kd [1]: 2.8 µM

Wild-type PhoB, phosphorylated (from UniProt P0AFJ5 1-229) (natural protein)
Kd [2]: 5.1 µM

Wild-type PhoB, unphosphorylated (from UniProt P0AFJ5 1-229) (natural protein)
Kd [3]: 378 µM

B1: PhoB^R91E/E111R, unphosphorylated (natural protein, Escherichia coli, UniProt P0AFJ5 1-229, looked up)
chain: MARRILVVEDEAPIREMVCFVLEQNGFQPVEAEDYDSAVNQLNEPWPDLILLDWMLPGGSGIQFIKHLKRESMTRDIPVVMLTARGEEEDEVRGLETGADDYITKPFSPKRLVARIKAVMRRISPMAVEEVIEMQGLSLDPTSHRVMAGEEPLEMGPTEFKLLHFFMTHPERVYSREQLLNHVWGTNVYVEDRTVDVHIRRLRKALEPGGHDRMVQTVRGTGYRFSTRF
binding result [4]: binds

B2: PhoB^R91E/E111R, phosphorylated (natural protein, Escherichia coli, UniProt P0AFJ5 1-229, looked up)
chain: MARRILVVEDEAPIREMVCFVLEQNGFQPVEAEDYDSAVNQLNEPWPDLILLDWMLPGGSGIQFIKHLKRESMTRDIPVVMLTARGEEEDEVRGLETGADDYITKPFSPKRLVARIKAVMRRISPMAVEEVIEMQGLSLDPTSHRVMAGEEPLEMGPTEFKLLHFFMTHPERVYSREQLLNHVWGTNVYVEDRTVDVHIRRLRKALEPGGHDRMVQTVRGTGYRFSTRF
modifications: phosphorylated at D53 (site of phosphorylation) with phosphoramidate; 100% phosphorylated at steady state
binding result [4]: binds
